Assay [1] has as its target T1, biotinylated-BCMA protein (UniProt Q02223 1-54, limits assumed, biotinylated (site not stated)).
T1 construct: also called recombinant BCMA antigen; recombinant biotinylated BCMA
T1 sequence (looked up): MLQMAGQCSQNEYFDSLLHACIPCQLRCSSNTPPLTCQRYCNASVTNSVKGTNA
Put plainly: BLI (Octet), biotinylated BCMA on streptavidin sensor, bispecific in solution, 1:1 model. In general terms: In BLI a coated tip is dipped into the sample, and binding shifts an interference pattern.

Assay [2] concerns the target T2, Human CD3E-CD3D Heterodimer Protein (Acro Biosystems) (human, UniProt P07766 23-126; P04234 22-105).
T2 construct: also called recombinant CD3 antigen (human CD3 epsilon and CD3 delta heterodimer protein, Acro Biosystems); Recombinant CD3E/D heterodimer protein
Put plainly: BLI (Octet), bispecific on anti-human Fc sensor, CD3 in solution, 2:1 heterogeneous ligand model, ka.
Experimental: (§1) To evaluate CD3 binding, anti-human IgG Fc (AHC) capture biosensors (Sartorius) were loaded with 3 ug/mL bispecific sample of interest in PBS. After loading sensor tips were washed in 1×DPBS+0.02% Tween 20+1 mg/mL Bovine Serum Albumin (BSA) for blocking. […] Association was monitored for 1800 s and dissociation for 900 s, respectively. All measurements were performed at 30° C. with agitation at 1,200 rpm. Sensorgrams were referenced for buffer effects and then analyzed using the FORTEBIO Data Analysis HT Software (V. 12.0.1.55). Kinetic responses were baseline subtracted, aligned and globally fit using a 1:1 fitting model or 2:1 heterogeneous ligand binding model to obtain values for association (Kon), dissociation (Koff) rate constants and the equilibrium dissociation constants (KD).
(§2) Recombinant CD3E/D heterodimer protein was used to assess binding of the scFv/spFv anti-CD3 arms.

The target in assay [3] is T2, Human CD3E-CD3D Heterodimer Protein …. Put plainly: BLI (Octet), bispecific on anti-human Fc sensor, CD3 in solution, 2:1 heterogeneous ligand model, KD1.
Experimental: as §1, §2
The target is the same in assay [4]. Put plainly: BLI (Octet), bispecific on anti-human Fc sensor, CD3 in solution, 2:1 heterogeneous ligand model, KD2.
Experimental: as §1, §2
Assay [5] shares this target. Put plainly: BLI (Octet), bispecific on anti-human Fc sensor, CD3 in solution, 2:1 heterogeneous ligand model, ka2.
Experimental: as §1, §2
Assay [6] shares this target. Put plainly: BLI (Octet), bispecific on anti-human Fc sensor, CD3 in solution, 2:1 heterogeneous ligand model, kdis.
Experimental: as §1, §2
The target is the same in assay [7]. Put plainly: BLI (Octet), bispecific on anti-human Fc sensor, CD3 in solution, 2:1 heterogeneous ligand model, kdis2.
Experimental: as §1, §2
The target in assay [8] is T1, biotinylated-BCMA protein. Put plainly: ELISA, chemiluminescence: biotinylated recombinant BCMA on streptavidin plates, detection with goat anti-human IgG F(ab')2 HRP. In general terms: In an ELISA, binding on a coated surface is turned into a signal by an enzyme label.
Experimental: Bispecific antibodies were analyzed for binding to either recombinant biotinylated BCMA or recombinant biotinylated CD3 antigen (human CD3 epsilon and CD3 delta heterodimer protein, Acro Biosystems). ELISAs were carried out according to standard protocols and plates were washed three time with TBS containing 0.05% Tween 20 (TBS-T) between each incubation step. Ninety-six-well MAXISORP plates (Nunc) were coated with 1 ug/mL of Streptavidin, diluted in 1×dPBS for 18 hours at 4° C. All plates were coated with 20 nM of antigen of interest for 1 hour at room temperature and then blocked with 3% BSA in PBS-T (1×dPBs with 0.05% tween 20) for 1 hour at room temperature. After blocking, plates were incubated with serial dilution of purified bispecific samples in PBS-T for 1 h at RT, and were then incubated with goat anti-human IgG F(ab′2)2 HRP (Jackson ImmunoResearch) for 1 hour at room temperature. After washing, BM Chemilluminesence ELISA Substrate (POD) was added (Millipore) and plates were immediately read on an ENVISION plate reader (Perkin Elmer) using ultrasensitive illuminesence. […] PRISM, where curves were generated and analyzed with a nonlinear regression curve fit.

T2 sequence (P07766 23-126 limits assumed, chain 1 of 2): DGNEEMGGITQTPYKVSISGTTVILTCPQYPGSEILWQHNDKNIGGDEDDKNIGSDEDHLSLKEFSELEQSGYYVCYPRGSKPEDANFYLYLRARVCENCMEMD
T2 sequence (P04234 22-105 limits assumed, chain 2 of 2): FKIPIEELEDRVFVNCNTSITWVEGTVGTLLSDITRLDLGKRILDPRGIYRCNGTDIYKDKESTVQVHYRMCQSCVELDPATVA

B1: TD01B46 (bispecific antibody, human IgG1, kappa, L234A L235A)
light: DIVMTQSQKFMSTTVGDRVSITCKASQNVGTAVAWYQQKPGQSPKLLIYSASNRYTGVPDRFTGTGSGTDFTLTIINVQSEDLADYFCQQYGSSPWTFGGGTKLEIKRTVAAPSVFIFPPSDEQLKSGTASVVCLLNNFYPREAKVQWKVDNALQSGNSQESVTEQDSKDSTYSLSSTLTLSKADYEKHKVYACEVTHQGLSSPVTKSFNRGEC
heavy: QVQLQQSGAELVKPGASVKLSCKASGYTFTNNVMHWVRQKPGQGLEWIGYILPYNDGTKYNEKFKGKATLTSDKSSSTAYMELSSLTSEDSAVYYCARYDYDGYFDYWGQGTTLTVSSASTKGPSVFPLAPSSKSTSGGTAALGCLVKDYFPEPVTVSWNSGALTSGVHTFPAVLQSSGLYSLSSVVTVPSSSLGTQTYICNVNHKPSNTKVDKKVEPKSCDKTHTCPPCPAPEAAGGPSVFLFPPKPKDTLMISRTPEVTCVVVSVSHEDPEVKFNWYVDGVEVHNAKTKPREEQYNSTYRVVSVLTVLHQDWLNGKEYKCKVSNKALPAPIEKTISKAKGQPREPQVYTLPPSREEMTKNQVSLSCAVKGFYPSDIAVEWESNGQPENNYKTTPPVLDSDGSFFLVSKLTVDKSRWQQGNVFSCSVMHEALHNRFTQKSLSLSPGK
chain: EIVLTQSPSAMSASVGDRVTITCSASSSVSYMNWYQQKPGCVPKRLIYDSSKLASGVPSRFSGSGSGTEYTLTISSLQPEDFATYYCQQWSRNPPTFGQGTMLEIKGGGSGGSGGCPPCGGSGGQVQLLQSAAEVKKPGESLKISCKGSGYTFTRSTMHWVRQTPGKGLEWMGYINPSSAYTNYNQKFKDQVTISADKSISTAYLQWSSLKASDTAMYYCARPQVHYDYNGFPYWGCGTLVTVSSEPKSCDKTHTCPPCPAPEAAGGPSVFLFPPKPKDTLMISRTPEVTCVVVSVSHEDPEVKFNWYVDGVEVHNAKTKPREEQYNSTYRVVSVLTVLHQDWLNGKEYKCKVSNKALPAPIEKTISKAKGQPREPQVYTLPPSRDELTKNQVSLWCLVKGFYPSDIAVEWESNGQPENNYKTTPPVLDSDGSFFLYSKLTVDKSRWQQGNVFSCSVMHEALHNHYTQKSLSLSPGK
notes: Stapled bispecific from the large-scale batch; also called BCMB749 × Cris7b spFv
As to B1, the Kd (commonly the free concentration of one partner at which half of the binding sites on the other are occupied at equilibrium, for simple one-to-one binding) amounted to 5.43 nM in assay [1], 0.0222 nM in assay [3] and 2.99 nM in assay [4]. Besides, the koff (as a rule, the rate constant with which the complex falls apart) was 0.00142 s⁻¹ in assay [1], 3.49e-06 s⁻¹ in assay [6] and 4.65e-05 s⁻¹ in assay [7]. Besides, the kon – broadly, a measure of how fast the partners come together – in assay [1] was 261000 M⁻¹ s⁻¹; in assay [2], 158000 M⁻¹ s⁻¹; in assay [5] it was 15600 M⁻¹ s⁻¹. The EC50 (read off the curve) (usually the concentration at which the effect is half-maximal) in assay [8] was about 2 nM.

B2: TD01B48 (bispecific antibody)
light: B1 light
heavy: B1 heavy
scFv-Fc: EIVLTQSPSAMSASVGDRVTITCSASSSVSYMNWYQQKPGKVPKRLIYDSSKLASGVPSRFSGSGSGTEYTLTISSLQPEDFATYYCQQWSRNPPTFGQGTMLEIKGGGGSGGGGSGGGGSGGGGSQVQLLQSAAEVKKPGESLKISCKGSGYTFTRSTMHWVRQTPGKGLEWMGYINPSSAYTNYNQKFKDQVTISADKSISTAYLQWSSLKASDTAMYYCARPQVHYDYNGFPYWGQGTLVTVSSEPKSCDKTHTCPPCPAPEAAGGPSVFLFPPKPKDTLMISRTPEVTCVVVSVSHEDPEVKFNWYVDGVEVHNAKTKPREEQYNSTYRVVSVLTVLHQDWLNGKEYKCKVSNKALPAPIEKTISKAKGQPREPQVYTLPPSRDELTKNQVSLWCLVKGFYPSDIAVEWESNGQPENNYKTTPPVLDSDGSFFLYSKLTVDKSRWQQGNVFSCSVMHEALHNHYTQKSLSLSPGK
notes: also called BCMB749 × Cris7b scFv G4S; Cris7 scFv B48 G4S
Take B2: the kon came out at 147000 M⁻¹ s⁻¹ in assay [2] and 16100 M⁻¹ s⁻¹ in assay [5]. In addition, the Kd in assay [3] amounted to 0.238 nM; in assay [4] it was 4.62 nM. The results for the koff in assay [6] and in assay [7] were 3.49e-05 s⁻¹ and 7.45e-05 s⁻¹, respectively. Moreover, in assay [8], the “EC50 (read off the curve)” value is about 2 nM.

B3: TD01B49 (bispecific antibody, human IgG1, kappa, L234A L235A)
light: B1 light
heavy: B1 heavy
chain: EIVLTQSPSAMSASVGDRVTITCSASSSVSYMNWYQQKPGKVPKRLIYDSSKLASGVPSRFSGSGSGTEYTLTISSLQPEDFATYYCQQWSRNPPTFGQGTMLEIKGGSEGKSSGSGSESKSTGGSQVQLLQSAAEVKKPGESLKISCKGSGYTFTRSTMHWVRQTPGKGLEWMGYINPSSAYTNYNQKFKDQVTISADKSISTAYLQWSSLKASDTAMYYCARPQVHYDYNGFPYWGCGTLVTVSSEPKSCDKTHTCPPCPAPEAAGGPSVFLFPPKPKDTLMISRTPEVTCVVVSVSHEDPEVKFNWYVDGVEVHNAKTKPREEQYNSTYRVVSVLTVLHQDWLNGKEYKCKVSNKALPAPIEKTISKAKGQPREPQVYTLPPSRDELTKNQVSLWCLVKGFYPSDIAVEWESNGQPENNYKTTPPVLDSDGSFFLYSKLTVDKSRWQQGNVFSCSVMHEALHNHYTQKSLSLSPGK
notes: also called BCMB749 × Cris7b scFv Bird
Consider B3, for which the Kd stood at 4.02 nM in assay [1], 0.127 nM in assay [3] and 3.42 nM in assay [4]. Moreover, the off-rate constant (koff) in assay [1] was found to be 0.00145 s⁻¹; in assay [6], 2.04e-05 s⁻¹; in assay [7], 5.61e-05 s⁻¹. Also, the kon in assay [1] was determined as 362000 M⁻¹ s⁻¹; in assay [2], 160000 M⁻¹ s⁻¹; in assay [5], 16400 M⁻¹ s⁻¹. Also, the “EC50 (read off the curve)” value in assay [8] was about 2 nM.

The values are drawn from patent US20250320304A1 (Janssen / Centocor, published 2025).
